B1: Trim5α from Rhesus macaque, Bbox coiled-coil regions, residues 88–296 with the mutation [Rhesus macaque] / LC3C [not stated] (parent)
chain 1: PEEGQKVDHCARHGEKLLLFCQEDSKVICWLCKDSQEHRGHHTFLMEEVAQEYHVKLQTALEMLRQKQQEAEKLEADIREEKASWKIQIDYDKTNVSADFEQLREILDWEESNELQNLEKEEEDILKSLTKSETEMVQQTQYMRELISELEHRLQGSMMDLLQGVDGIIKRIENMTLKKPKTFHKNQRRVFRAPDLKGMLDMFRELTDA
chain 2: MPPPQKIPSVRPFKQRKSLAIRQEEVAGIRAKFPNKIPVVVERYPRETFLPPLDKTKFLVPQELTMTQFLSIIRSRMVLRATEAFYLLVNNKSLVSMSATMAEIYRDYKDEDGFVYMTYASQETFG
B2: Trim5α from Rhesus macaque, Bbox coiled-coil regions, residues 88–296 with the mutation [Rhesus macaque] / GABARAPL1 [not stated] (parent)
chain 1: B1 chain 1
chain 2: not shown
B3: Trim5α from Rhesus macaque, Bbox coiled-coil regions, residues 88–296 with the mutation [Rhesus macaque] / GABARAP [not stated] (parent)
chain 1: B1 chain 1
chain 2: MKFVYKEEHPFEKRRSEGEKIRKKYPDRVPVIVEKAPKARIGDLDKKKYLVPSDLTVGQFYFLIRKRIHLRAEDALFFFVNNVIPPTSATMGQLYQEHHEEDFFLYIAYSDESVYGL

Variants of: B1
Test: SV-AUC c(s) analysis
Conditions: with LC3C; 20 μm equimolar concentration; read off a plot

| screen value [S] | Variant |
| --- | --- |
| 2.7 | chain 1 PEEGQKVDHCARHGEKLLLFCQEDSKVICWLCKDSQEHRGHHTFLMEEVAQEYHVKLQTALEMLRQKQQEAEKLEADIREEKASWKIQIDYDKTNVSADFEQLREILDAEESNELQNLEKEEEDILKSLTKSETEMVQQTQYMRELISELEHRLQGSMMDLLQGVDGIIKRIENMTLKKPKTFHKNQRRVFRAPDLKGMLDMFRELTDA [chain 1 W109A] |

Variants of: B2
Test: SV-AUC c(s) analysis
Conditions: with GABARAPL1; equal concentration of 20 μm; read off a plot

| screen value [S] | Variant |
| --- | --- |
| 3.1 | chain 1 Q102A |
| 3 | chain 1 S112A |
| 3 | chain 1 Q116A |

More lines, now with the values behind:

| Variant | screen value [S] |
| --- | --- |
| chain 1 E105K | 2.8 |
| chain 1 E105A | 2.9 |
| chain 1 E111K | 2.9 |
| chain 1 E110A | 3 |
| chain 1 E119A | 3 |
| chain 1 E119K | 2.9 |

Same assay, conditions: with autophagy-related protein LC3 B (LC3B), equal concentration of 20 μm, read off a plot

| screen value [S] | Variant |
| --- | --- |
| 2.9 | chain 1 Q102A |
| 3 | chain 1 S112A |
| 3 | chain 1 Q116A |

The next lines start with the variant.

| Variant | screen value [S] |
| --- | --- |
| chain 1 E105K | 2.7 |
| chain 1 E105A | 2.8 |
| chain 1 E111K | 2.8 |
| chain 1 E110A | 2.8 |
| chain 1 E119A | 2.8 |
| chain 1 E119K | 2.8 |

Same assay, conditions: with GABARAPL1; 20 μm equimolar concentration; read off a plot

| screen value [S] | Variant |
| --- | --- |
| 2.8 | chain 1 W109A |

Same assay, conditions: with autophagy-related protein LC3 B (LC3B), 20 μm equimolar concentration, read off a plot

| screen value [S] | Variant |
| --- | --- |
| 2.7 | chain 1 W109A |

Variants of: B3
Test: SV-AUC c(s) analysis
Conditions: with GABARAP; 20 μm equimolar concentration; read off a plot

| screen value [S] | Variant |
| --- | --- |
| 2.8 | chain 1 W109A |

Source: article PMC6254359
